The target in assay [1] is T1, BicD^CC2‐CC3 (amino acids 318–782) (Drosophila, UniProt P16568 318-782, biotin on the biotin tag).
T1 sequence (looked up): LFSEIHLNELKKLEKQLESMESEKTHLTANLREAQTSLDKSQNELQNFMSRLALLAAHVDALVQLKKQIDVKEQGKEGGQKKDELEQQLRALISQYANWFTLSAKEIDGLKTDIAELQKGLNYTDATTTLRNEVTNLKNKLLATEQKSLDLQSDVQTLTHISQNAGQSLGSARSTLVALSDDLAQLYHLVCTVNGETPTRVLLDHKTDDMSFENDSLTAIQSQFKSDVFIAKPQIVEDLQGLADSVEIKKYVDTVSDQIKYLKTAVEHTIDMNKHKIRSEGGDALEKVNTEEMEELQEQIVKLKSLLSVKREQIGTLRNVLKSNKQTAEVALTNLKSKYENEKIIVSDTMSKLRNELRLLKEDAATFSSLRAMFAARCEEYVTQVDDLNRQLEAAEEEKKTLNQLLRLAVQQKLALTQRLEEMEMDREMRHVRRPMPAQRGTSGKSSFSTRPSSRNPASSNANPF
The assay is described as follows: interferometric scattering mass spectrometry.

Assay [2] has as its target T1, BicD^CC2‐CC3 (amino acids 318–782). The assay is described as follows: single-molecule TIRF microscopy.

B1: Drosophila kinesin^ΔH2 (kinesin heavy chain lacking the hinge 2 region, amino acids K521‐D641) (natural protein, Drosophila melanogaster, UniProt P17210 1-975, looked up)
chain: MSAEREIPAEDSIKVVCRFRPLNDSEEKAGSKFVVKFPNNVEENCISIAGKVYLFDKVFKPNASQEKVYNEAAKSIVTDVLAGYNGTIFAYGQTSSGKTHTMEGVIGDSVKQGIIPRIVNDIFNHIYAMEVNLEFHIKVSYYEIYMDKIRDLLDVSKVNLSVHEDKNRVPYVKGATERFVSSPEDVFEVIEEGKSNRHIAVTNMNEHSSRSHSVFLINVKQENLENQKKLSGKLYLVDLAGSEKVSKTGAEGTVLDEAKNINKSLSALGNVISALADGNKTHIPYRDSKLTRILQESLGGNARTTIVICCSPASFNESETKSTLDFGRRAKTVKNVVCVNEELTAEEWKRRYEKEKEKNARLKGKVEKLEIELARWRAGETVKAEEQINMEDLMEASTPNLEVEAAQTAAAEAALAAQRTALANMSASVAVNEQARLATECERLYQQLDDKDEEINQQSQYAEQLKEQVMEQEELIANARREYETLQSEMARIQQENESAKEEVKEVLQALEELAVNYDQSNKKISEYEKDLGEYRLLISQHEARMKSLQESMREAENKKRTLEEQIDSLREECAKLKAAEHVSAVNAEEKQRAEELRSMFDSQMDELREAHTRQVSELRDEIAAKQHEMDEMKDVHQKLLLAHQQMTADYEKVRQEDAEKSSELQNIILTNERREQARKDLKGLEDTVAKELQTLHNLRKLFVQDLQQRIRKNVVNEESEEDGGSLAQKQKISFLENNLDQLTKVHKQLVRDNADLRCELPKLEKRLRCTMERVKALETALKEAKEGAMRDRKRYQYEVDRIKEAVRQKHLGRRGPQAQIAKPIRSGQGAIAIRGGGAVGGPSPLAQVNPVNS
modifications: biotin on the biotin tag
Take B1: the stoichiometry N – broadly, the number of molecules, sites or subunits per partner or assembly – in assay [1] was 2 kinesins per BicD^CC2-CC3. In addition, the “percent of Qdots in complexes with BicD^CC2-CC3” value (“percent of Qdots in complexes” below) in assay [2] is 21.3%.

B2: kinesin^ΔH2 with added kinesin light chain (KLC) (complex)
heavy: MSAEREIPAEDSIKVVCRFRPLNDSEEKAGSKFVVKFPNNVEENCISIAGKVYLFDKVFKPNASQEKVYNEAAKSIVTDVLAGYNGTIFAYGQTSSGKTHTMEGVIGDSVKQGIIPRIVNDIFNHIYAMEVNLEFHIKVSYYEIYMDKIRDLLDVSKVNLSVHEDKNRVPYVKGATERFVSSPEDVFEVIEEGKSNRHIAVTNMNEHSSRSHSVFLINVKQENLENQKKLSGKLYLVDLAGSEKVSKTGAEGTVLDEAKNINKSLSALGNVISALADGNKTHIPYRDSKLTRILQESLGGNARTTIVICCSPASFNESETKSTLDFGRRAKTVKNVVCVNEELTAEEWKRRYEKEKEKNARLKGKVEKLEIELARWRAGETVKAEEQINMEDLMEASTPNLEVEAAQTAAAEAALAAQRTALANMSASVAVNEQARLATECERLYQQLDDKDEEINQQSQYAEQLKEQVMEQEELIANARREYETLQSEMARIQQENESAKEEVKEVLQALEELAVNYDQSNKKISEYEKDLGEYRLLISQHEARMKSLQESMREAENKKRTLEEQIDSLREECAKLKAAEHVSAVNAEEKQRAEELRSMFDSQMDELREAHTRQVSELRDEIAAKQHEMDEMKDVHQKLLLAHQQMTADYEKVRQEDAEKSSELQNIILTNERREQARKDLKGLEDTVAKELQTLHNLRKLFVQDLQQRIRKNVVNEESEEDGGSLAQKQKISFLENNLDQLTKVHKQLVRDNADLRCELPKLEKRLRCTMERVKALETALKEAKEGAMRDRKRYQYEVDRIKEAVRQKHLGRRGPQAQIAKPIRSGQGAIAIRGGGAVGGPSPLAQVNPVNS
light: MTQMSQDEIITNTKTVLQGLEALRVEHVSIMNGIAEVQKDNEKSDMLRKNIENIELGLSEAQVMMALTSHLQNIEAEKHKLKTQVRRLHQENAWLRDELANTQQKFQASEQLVAQLEEEKKHLEFMASVKKYDENQEQDDACDKSRTDPVVELFPDEENEDRHNMSPTPPSQFANQTSGYEIPARLRTLHNLVIQYASQGRYEVAVPLCKQALEDLERTSGHDHPDVATMLNILALVYRDQNKYKEAANLLNDALSIRGKTLGENHPAVAATLNNLAVLYGKRGKYKDAEPLCKRALEIREKVLGKDHPDVAKQLNNLALLCQNQGKYDEVEKYYQRALDIYESKLGPDDPNVAKTKNNLAGCYLKQGRYTEAEILYKQVLTRAHEREFGAIDSKNKPIWQVAEEREEHKFDNRENTPYGEYGGWHKAAKVDSPTVTTTLKNLGALYRRQGMFEAAETLEDCAMRSKKEAYDLAKQTKLSQLLTSNEKRRSKAIKEDLDFSEEKNAKP
modifications: biotin on the biotin tag
Consider B2, for which the “percent of Qdots in complexes” value in assay [2] is 6.6%.

B3: homodimeric Drosophila kinesin‐1 (kinesin heavy chain, no bound light chains) (natural protein, Drosophila melanogaster, UniProt P17210 1-975, looked up)
chain: MSAEREIPAEDSIKVVCRFRPLNDSEEKAGSKFVVKFPNNVEENCISIAGKVYLFDKVFKPNASQEKVYNEAAKSIVTDVLAGYNGTIFAYGQTSSGKTHTMEGVIGDSVKQGIIPRIVNDIFNHIYAMEVNLEFHIKVSYYEIYMDKIRDLLDVSKVNLSVHEDKNRVPYVKGATERFVSSPEDVFEVIEEGKSNRHIAVTNMNEHSSRSHSVFLINVKQENLENQKKLSGKLYLVDLAGSEKVSKTGAEGTVLDEAKNINKSLSALGNVISALADGNKTHIPYRDSKLTRILQESLGGNARTTIVICCSPASFNESETKSTLDFGRRAKTVKNVVCVNEELTAEEWKRRYEKEKEKNARLKGKVEKLEIELARWRAGETVKAEEQINMEDLMEASTPNLEVEAAQTAAAEAALAAQRTALANMSASVAVNEQARLATECERLYQQLDDKDEEINQQSQYAEQLKEQVMEQEELIANARREYETLQSEMARIQQENESAKEEVKEVLQALEELAVNYDQKSQEIDNKNKDIDALNEELQQKQSVFNAASTELQQLKDMSSHQKKRITEMLTNLLRDLGEVGQAIAPGESSIDLKMSALAGTDASKVEEDFTMARLFISKMKTEAKNIAQRCSNMETQQADSNKKISEYEKDLGEYRLLISQHEARMKSLQESMREAENKKRTLEEQIDSLREECAKLKAAEHVSAVNAEEKQRAEELRSMFDSQMDELREAHTRQVSELRDEIAAKQHEMDEMKDVHQKLLLAHQQMTADYEKVRQEDAEKSSELQNIILTNERREQARKDLKGLEDTVAKELQTLHNLRKLFVQDLQQRIRKNVVNEESEEDGGSLAQKQKISFLENNLDQLTKVHKQLVRDNADLRCELPKLEKRLRCTMERVKALETALKEAKEGAMRDRKRYQYEVDRIKEAVRQKHLGRRGPQAQIAKPIRSGQGAIAIRGGGAVGGPSPLAQVNPVNS
modifications: biotin on the biotin tag (biotinylation occurs during expression in Sf9 cells)
For the molecule B3, in assay [2], the “percent of Qdots in complexes” value was 16.4%.

B4: heterotetrameric kinesin^KLC (kinesin heavy chain with bound kinesin light chains) (complex)
heavy: MSAEREIPAEDSIKVVCRFRPLNDSEEKAGSKFVVKFPNNVEENCISIAGKVYLFDKVFKPNASQEKVYNEAAKSIVTDVLAGYNGTIFAYGQTSSGKTHTMEGVIGDSVKQGIIPRIVNDIFNHIYAMEVNLEFHIKVSYYEIYMDKIRDLLDVSKVNLSVHEDKNRVPYVKGATERFVSSPEDVFEVIEEGKSNRHIAVTNMNEHSSRSHSVFLINVKQENLENQKKLSGKLYLVDLAGSEKVSKTGAEGTVLDEAKNINKSLSALGNVISALADGNKTHIPYRDSKLTRILQESLGGNARTTIVICCSPASFNESETKSTLDFGRRAKTVKNVVCVNEELTAEEWKRRYEKEKEKNARLKGKVEKLEIELARWRAGETVKAEEQINMEDLMEASTPNLEVEAAQTAAAEAALAAQRTALANMSASVAVNEQARLATECERLYQQLDDKDEEINQQSQYAEQLKEQVMEQEELIANARREYETLQSEMARIQQENESAKEEVKEVLQALEELAVNYDQKSQEIDNKNKDIDALNEELQQKQSVFNAASTELQQLKDMSSHQKKRITEMLTNLLRDLGEVGQAIAPGESSIDLKMSALAGTDASKVEEDFTMARLFISKMKTEAKNIAQRCSNMETQQADSNKKISEYEKDLGEYRLLISQHEARMKSLQESMREAENKKRTLEEQIDSLREECAKLKAAEHVSAVNAEEKQRAEELRSMFDSQMDELREAHTRQVSELRDEIAAKQHEMDEMKDVHQKLLLAHQQMTADYEKVRQEDAEKSSELQNIILTNERREQARKDLKGLEDTVAKELQTLHNLRKLFVQDLQQRIRKNVVNEESEEDGGSLAQKQKISFLENNLDQLTKVHKQLVRDNADLRCELPKLEKRLRCTMERVKALETALKEAKEGAMRDRKRYQYEVDRIKEAVRQKHLGRRGPQAQIAKPIRSGQGAIAIRGGGAVGGPSPLAQVNPVNS
light: MTQMSQDEIITNTKTVLQGLEALRVEHVSIMNGIAEVQKDNEKSDMLRKNIENIELGLSEAQVMMALTSHLQNIEAEKHKLKTQVRRLHQENAWLRDELANTQQKFQASEQLVAQLEEEKKHLEFMASVKKYDENQEQDDACDKSRTDPVVELFPDEENEDRHNMSPTPPSQFANQTSGYEIPARLRTLHNLVIQYASQGRYEVAVPLCKQALEDLERTSGHDHPDVATMLNILALVYRDQNKYKEAANLLNDALSIRGKTLGENHPAVAATLNNLAVLYGKRGKYKDAEPLCKRALEIREKVLGKDHPDVAKQLNNLALLCQNQGKYDEVEKYYQRALDIYESKLGPDDPNVAKTKNNLAGCYLKQGRYTEAEILYKQVLTRAHEREFGAIDSKNKPIWQVAEEREEHKFDNRENTPYGEYGGWHKAAKVDSPTVTTTLKNLGALYRRQGMFEAAETLEDCAMRSKKEAYDLAKQTKLSQLLTSNEKRRSKAIKEDLDFSEEKNAKP
modifications: biotin on the biotin tag
In the case of B4, the “percent of Qdots in complexes” value in assay [2] was 3.7%.
